Results on one molecule are retold here after publication PMC11649783, “Structural basis of 3′-tRNA maturation by the human mitochondrial RNase Z complex” (The EMBO Journal, 2024).

This test concerns the target T1, SDR5C1 (human, UniProt Q99714 1-261).
T1 construct: expression construct as previously described (Reinhard et al, 2017); The subcomplex was purified by Ni2+ IMAC and treated with TEV protease; also called 4xSDR5C1
T1 sequence: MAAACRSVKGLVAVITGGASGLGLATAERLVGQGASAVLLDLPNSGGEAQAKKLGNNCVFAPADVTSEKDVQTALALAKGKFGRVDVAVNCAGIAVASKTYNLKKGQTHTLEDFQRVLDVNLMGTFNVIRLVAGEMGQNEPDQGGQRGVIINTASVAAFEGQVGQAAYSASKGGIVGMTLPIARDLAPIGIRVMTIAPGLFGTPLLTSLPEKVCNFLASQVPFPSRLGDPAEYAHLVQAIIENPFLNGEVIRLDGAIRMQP
In words: cryo-EM structure; RNase Z-HS product complex: assembled at 4 °C from 10 μM TRMT10C/SDR5C1, 20 μM ELAC2 and 20 μM mt-tRNA^His-Ser(AGY) precursor with 200 μM SAM in buffer D (20 mM HEPES 7.5, 50 mM NaCl, 1 mM MgCl2, 1 mM DTT), S200 size exclusion, incubated to complete turnover; 2.9 Å. The conditions noted are these: both partners purified.

B1: TRMT10C (enzyme, human, UniProt Q7L0Y3 40-403, looked up)
chain: MSSKIPAVTYPKNESTPPSEELELDKWKTTMKSSVQEECVSTISSSKDEDPLAATREFIEMWRLLGREVPEHITEEELKTLMECVSNTAKKKYLKYLYTKEKVKKARQIKKEMKAAAREEAKNIKLLETTEEDKQKNFLFLRLWDRNMDIAMGWKGAQAMQFGQPLVFDMAYENYMKRKELQNTVSQLLESEGWNRRNVDPFHIYFCNLKIDGALHRELVKRYQEKWDKLLLTSTEKSHVDLFPKDSIIYLTADSPNVMTTFRHDKVYVIGSFVDKSMQPGTSLAKAKRLNLATECLPLDKYLQWEIGNKNLTLDQMIRILLCLKNNGNWQEALQFVPKRKHTGFLEISQHSQEFINRLKKAKT
notes: TRMT10C, human; expression construct as previously described (Reinhard et al, 2017); The subcomplex was purified by Ni2+ IMAC and treated with TEV protease
Regarding B1, the “stoichiometry N” value is 2 mt-tRNA/TRMT10C per SDR5C1 tetramer.
